Test results taken from the supplement of paper PMC10126150.
± gives the standard deviation of the averaged measurements.
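Also: ATP exposure 15 min at 22 °C before imaging.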

What follows are sequences tested on ATP (assay: switch fluorescence ratio, 500 uM ATP over buffer (Cy3 cluster intensity, sum of 5 cycles each) (fold (ratio)); higher = stronger signal-on switching upon ATP binding; sequences stand for … in TCGTCGGCAGCGTCAGATGTGTATAAGAGACAGTTTTTTTTTTTTTTTTTTTTTTTTT…TC). Conditions: aptamer strand: ATP DNA aptamer (quencher-CACCTGGGGGAGTATTGCGGAGGAAGG + anchor), 100 nM annealed; ATP concentration: 500 uM.
In short: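 The fluorescence ratio divides summed target-cycle Cy3 intensity by summed buffer-cycle Cy3 intensity for each cluster and is averaged per switch-domain sequence. Cy3-labelled switching-strand clusters on a modified Illumina MiSeq flow-cell were annealed to 100 nM quencher-labelled ATP aptamer, then imaged in selection buffer and again after 15 min with 500 uM ATP at 22 °C. Five such cycles were run, with NaOH stripping and re-annealing between them, and clusters outside 100-1000 RFU were excluded.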
AAGTGGTCTG was tested, and the switch fluorescence ratio was 0.983 ± 0.017.
TGCGGTCACT gave a switch fluorescence ratio of 0.9964 ± 0.0056.
Work on AGGTTTGTTA yielded a switch fluorescence ratio of 0.987 ± 0.015.
Work on TAACTACGAG yielded a switch fluorescence ratio of 1.07 ± 0.011.
GGGCTATCAT showed a switch fluorescence ratio of 0.965 ± 0.012.
In the case of TTTATAATTT, the switch fluorescence ratio is reported as 0.981 ± 0.018.
Sequence TCGGTAGGTG has a switch fluorescence ratio of 1.028 ± 0.0052.
With TAAGGAAAAG the switch fluorescence ratio was 1.01 ± 0.05.
Work on TGATTGTATG yielded a switch fluorescence ratio of 1.01 ± 0.011.
AAAAGCTTTT was tested, and the switch fluorescence ratio was 0.988 ± 0.034.
ATGCATCGAG was tested, and the switch fluorescence ratio was 1.01 ± 0.03.
Sequence TGACTTTTCG has a switch fluorescence ratio of 0.995 ± 0.032.
Work on AGATAAAGGG yielded a switch fluorescence ratio of 1.03 ± 0.017.
Sequence TTAAAACTAT has a switch fluorescence ratio of 1.015 ± 0.0089.
In the case of TTGTTATCCG, the switch fluorescence ratio is reported as 0.964 ± 0.048.
With TGACTACGCG the switch fluorescence ratio was 1.18 ± 0.02.
With AATTTGTTCT the switch fluorescence ratio was 0.999 ± 0.025.
Work on TCGTTTTGCA yielded a switch fluorescence ratio of 0.991 ± 0.013.
ACATCCTTCG gave a switch fluorescence ratio of 1.7 ± 0.25.
GAAGGTGGTG was tested, and the switch fluorescence ratio was 0.961 ± 0.032.
TGGGGACAAA showed a switch fluorescence ratio of 0.986 ± 0.019.
In the case of GTCACCGACT, the switch fluorescence ratio is reported as 1 ± 0.013.
GGTTATTGGG was tested, and the switch fluorescence ratio was 0.98 ± 0.075.
Work on ATGTAGGGTG yielded a switch fluorescence ratio of 1.008 ± 0.0039.
With TTTTGAACGT the switch fluorescence ratio was 1.02 ± 0.043.
In the case of GGGGATGAGA, the switch fluorescence ratio is reported as 0.986 ± 0.01.
For CGTTCACCTG, the switch fluorescence ratio was 0.996 ± 0.038.
ATAGGGGTGC was tested, and the switch fluorescence ratio was 1.02 ± 0.042.
Work on TTGCTTGAGC yielded a switch fluorescence ratio of 1.006 ± 0.0092.
With TAGGGGGCTT the switch fluorescence ratio was 1.01 ± 0.018.
Sequence GTTTGCGCTT has a switch fluorescence ratio of 1.01 ± 0.021.
TCGGTTTAGC gave a switch fluorescence ratio of 1.02 ± 0.035.
With TCCTCATGTT the switch fluorescence ratio was 1.07 ± 0.032.
AGAAAATTAC was tested, and the switch fluorescence ratio was 2.42 ± 2.
AGGAGGGGGT gave a switch fluorescence ratio of 0.991 ± 0.033.
Sequence AGAGGATTTG has a switch fluorescence ratio of 1.02 ± 0.022.
Sequence CAGTCAGGGC has a switch fluorescence ratio of 1.26 ± 0.21.
Sequence GCTGATATGG has a switch fluorescence ratio of 1.02 ± 0.054.
TTTGATCGCT showed a switch fluorescence ratio of 1.28 ± 0.46.
With CCGGGAGGGG the switch fluorescence ratio was 1.11 ± 0.12.
TTTTTAGCTT showed a switch fluorescence ratio of 1.04 ± 0.028.
In the case of TGAGTGCAGG, the switch fluorescence ratio is reported as 1.02 ± 0.066.
TTTCAGACAT gave a switch fluorescence ratio of 1.016 ± 0.008.
CGGTAGTCAG gave a switch fluorescence ratio of 0.9983 ± 0.008.
Work on AGTGTGGGCT yielded a switch fluorescence ratio of 1.04 ± 0.021.
GGGTGCTTGG was tested, and the switch fluorescence ratio was 1.0239 ± 0.00098.
GTTATAATCC gave a switch fluorescence ratio of 1.037 ± 0.0076.
In the case of AGTTTGGTGT, the switch fluorescence ratio is reported as 0.997 ± 0.026.
For AGGCGGATGG, the switch fluorescence ratio was 0.9853 ± 0.0062.
Work on GGGGCATAGT yielded a switch fluorescence ratio of 0.991 ± 0.02.
AAGTAGTTTC gave a switch fluorescence ratio of 1.01 ± 0.018.
TGTTGCAGAG was tested, and the switch fluorescence ratio was 1.03 ± 0.049.
With ACCGGGTGCA the switch fluorescence ratio was 1.36 ± 0.48.
In the case of TTGTGGGGTG, the switch fluorescence ratio is reported as 1.01 ± 0.044.
CGGTGGGTGC showed a switch fluorescence ratio of 0.997 ± 0.038.
Work on GTGGCGGATT yielded a switch fluorescence ratio of 1.02 ± 0.013.
GATCAGAGGA showed a switch fluorescence ratio of 1.05 ± 0.039.
Sequence TGGATCTCAG has a switch fluorescence ratio of 0.982 ± 0.012.
GAGGGTCCGG gave a switch fluorescence ratio of 0.991 ± 0.035.
Work on CGCAGTTTTA yielded a switch fluorescence ratio of 1.055 ± 0.0065.
GGGGGTTCTA showed a switch fluorescence ratio of 1.02 ± 0.011.
For CTGCTAAGTA, the switch fluorescence ratio was 1.01 ± 0.013.
With CTGAACTATG the switch fluorescence ratio was 1 ± 0.056.
Sequence TCTTTATAAA has a switch fluorescence ratio of 1.02 ± 0.038.
For AAAAAGCTGA, the switch fluorescence ratio was 0.973 ± 0.055.
GGCCTAGAGG was tested, and the switch fluorescence ratio was 1.01 ± 0.021.
With ATTTAGCCGC the switch fluorescence ratio was 1.02 ± 0.017.
TTGCTTCAGC showed a switch fluorescence ratio of 0.994 ± 0.097.
For TGTATGGTTT, the switch fluorescence ratio was 0.971 ± 0.048.
GGTCCGGGGA gave a switch fluorescence ratio of 0.989 ± 0.013.
For AAGAAACTTC, the switch fluorescence ratio was 1.007 ± 0.0024.
TTCGTTAGAA gave a switch fluorescence ratio of 1.0091 ± 0.00067.
AATGGGTAGT was tested, and the switch fluorescence ratio was 0.991 ± 0.042.
TGAGGGCGTT gave a switch fluorescence ratio of 0.995 ± 0.031.
Sequence TGAGGGTACA has a switch fluorescence ratio of 0.984 ± 0.017.
With TCGGTTGAAC the switch fluorescence ratio was 1.01 ± 0.031.
